Data as given in US20230355708A1 (priority 2020, published 2023).
Where a chain is given by its changes, count along the chain named. Names and notes keep the numbering of the source. “Also recorded” adds a separate entry of the source.

What was measured:
SARS-CoV-2 pseudoviruses [1] = test system: SARS-CoV-2 pseudoviruses
SARS-CoV-1 pseudoviruses [2] = format: cell-based
SARS-CoV-2 pseudoviruses [3] = format: cell-based
gp120 = gp120 (Human immunodeficiency virus type 1 group M subtype B, UniProt P35961); settings: SPR
HIV-1 pseudovirus [4] = test system: HIV-1 pseudovirus
[5] = biological target: SARS-CoV-2 spike S2 subunit (Severe acute respiratory syndrome coronavirus 2, UniProt P0DTC2)
SARS-CoV-2 pseudoviruses [6] = format: cell-based; remark: listed apart in the source
SARS-CoV-1 pseudoviruses [7] = format: cell-based; remark: listed apart in the source
[8] = biological target: SARS-CoV-2 spike S1 subunit (Severe acute respiratory syndrome coronavirus 2, UniProt P0DTC2)
SARS-CoV-1 pseudoviruses [9] = test system: SARS-CoV-1 pseudoviruses
HIV-1 pseudovirus [10] = format: cell-based
[11] = biological target: receptor binding domain (RBD) (Severe acute respiratory syndrome coronavirus 2, UniProt P0DTC2)

B1: CVN: lectin cyanovirin-N, SEQ ID NO:1 (protein)
chain: LGKFSQTCYNSAIQGSVLTSTCERTNGGYNTSSIDLNSVIENVDGSLKWQPSNFIETCRNTQLAGSSELAAECKTRAQQFVSTKINLDDHIANIDGTLKYE
- virolysis of SARS-CoV-2 pseudoviruses (SARS-CoV-2 pseudoviruses [1]): more potent than CVN-DLI; also recorded: capable of causing cell-free virolysis
- irreversible inactivation of SARS-CoV-1 (SARS-CoV-1 pseudoviruses [2]): irreversible inactivation
- irreversible inactivation of SARS-CoV-2 (SARS-CoV-2 pseudoviruses [3]): irreversible inactivation
- binding to gp120 (gp120): occurred
- virolysis of HIV-1 (HIV-1 pseudovirus [4]): no virolytic effect
- stability of lectin-S2 complexes [5]: very stable
- stoichiometry of binding, S2 versus S1 [5]: higher to the S2 subunit
- inhibition of SARS-CoV-2 pseudovirus infection (SARS-CoV-2 pseudoviruses [6]): inhibited infection at nanomolar potencies
- inhibition of SARS-CoV-1 pseudovirus infection (SARS-CoV-1 pseudoviruses [7]): inhibition
- binding of S1 to lectin [8]: Relatively lower binding
- virolysis of SARS-CoV-1 pseudoviruses (SARS-CoV-1 pseudoviruses [9]): no virolytic effect
- inhibition of HIV-1 infection (HIV-1 pseudovirus [10]): inhibition
- virolysis of Env Neg pseudovirus (Env Neg pseudovirus): no virolytic effect
- binding to receptor binding domain (RBD) [11]: no binding

B2: P51G-CVN: mutant CVN wherein Pro 51 is mutated to Gly, SEQ ID NO:3 (protein)
chain: B1 chain with P51G
- virolysis of SARS-CoV-2 pseudoviruses (SARS-CoV-2 pseudoviruses [1]): reduced virolysis
- binding to S2 subunit [5]: reduced affinity as compared to CVN
- inhibition of SARS-CoV-2 pseudovirus infection (SARS-CoV-2 pseudoviruses [6]): decreased inhibition of infection
- binding to S1 subunit [8]: reduced affinity as compared to CVN
